The results in this text go back to patent US20110230406A1.

The target of this assay is rhBMP-2 (R&D Systems, Item number 355-BM/CF) (human) (UniProt P12643). Description: retention test: peptide-free EDC/NHS crosslinked collagen disc loaded with 40 micrograms rhBMP-2, spun, unbound rhBMP-2 in supernatant by ELISA; control for the affinity biomatrix.
rhBMP-2 (R&D Systems, Item number 355-BM/CF) (human), sequence (P12643 283-396 limits assumed): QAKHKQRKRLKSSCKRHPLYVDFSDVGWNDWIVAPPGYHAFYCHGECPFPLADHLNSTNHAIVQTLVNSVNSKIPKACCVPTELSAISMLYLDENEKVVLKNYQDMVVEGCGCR

Take “affinity peptide-free EDC/NHS crosslinked collagen disc (6 mm diameter)”: the % rhBMP-2 incorporation came out at 40 % by weight.
